Protein stability index data for 20 sequences are collected here from the supplement of paper PMC10567573.

± gives the standard deviation.

This series can be described thus: protein stability index of a GFP-peptide fusion (GPS, HEK-293T) (PSI 1-6); higher = more stable. The conditions noted are these: c terminus: a fixed tail appended.
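Note: 24-mer peptide tiles fused after GFP, lentivirally expressed, FACS-sorted into six equal bins by GFP/DsRed ratio, decoded by Illumina sequencing, PSI is the read-weighted mean bin number.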

For the sequence FIPAHVAFDKKVLKFDAYFQEDVP [EFHC1], the protein stability index is, setting by setting: (treatment: DMSO) 2.24 ± 0.23; (treatment: MLN4924 1 uM, 8 h) 2.57 ± 0.58.

Consider MSQRNLNAKTEQGPTGVTMTSNPI [CDK11A], for which the protein stability index worked out at 4.53 ± 0.23 (treatment: DMSO) and 4.64 ± 0.17 (treatment: MLN4924 1 uM, 8 h).

Regarding FPAMLFSSMLTGILWDTLLRLCAW [POMT2], the protein stability index (treatment: DMSO) was 3.23 ± 0.51 and the protein stability index (treatment: MLN4924 1 uM, 8 h) is 3.09 ± 0.12.

As for ERKKNLTLALEALVQLRGRLTSQD [ALG2], the protein stability index was 2.79 ± 0.16 (treatment: DMSO) and 2.88 ± 0.48 (treatment: MLN4924 1 uM, 8 h).

For TTMNYPLWSQSYEDSSNQEEEGPS [MAGEA3], the protein stability index by setting is: (treatment: DMSO) 5.43 ± 0.11; (treatment: MLN4924 1 uM, 8 h) 5.36 ± 0.13.

Consider RCRQSLEDSESLRIKEVEHMTRHL [LRRC45], for which the protein stability index is 3.42 ± 0.14 (treatment: DMSO) and 3.46 ± 0.17 (treatment: MLN4924 1 uM, 8 h).

QFRVVRCWKMLSPGFDSSVYSDLC [ADAMTSL2]: the protein stability index by setting is: (treatment: DMSO) 2.5 ± 1; (treatment: MLN4924 1 uM, 8 h) 2.32 ± 0.45.

As for LSLESSPDAPDHTSETSHSPLYAD [PLEKHN1], the protein stability index reads like this: (treatment: DMSO) 5.47 ± 0.16; (treatment: MLN4924 1 uM, 8 h) 5.38 ± 0.24.

For the sequence RTHGDMHSLVRSRHRIPEPEAAVL [TRIB3], the protein stability index by setting is: (treatment: DMSO) 3.8 ± 0.11; (treatment: MLN4924 1 uM, 8 h) 3.91 ± 0.086.

Take CASPVTGPGSKRDAHFCAVCSDYA [ESR2]: the protein stability index by setting is: (treatment: DMSO) 3.08 ± 0.22; (treatment: MLN4924 1 uM, 8 h) 3.16 ± 0.29.

In the case of DKVRALEEANADLEVKIRDWYQRQ [KRT16], the protein stability index reads like this: (treatment: DMSO) 4.01 ± 0.11; (treatment: MLN4924 1 uM, 8 h) 4.04 ± 0.27.

On to PSLGRVLPDPREACGSSSYVASIV [RBMY1A1], for which the protein stability index worked out at 2.63 ± 0.36 (treatment: DMSO) and 2.94 ± 0.21 (treatment: MLN4924 1 uM, 8 h).

In the case of VLAEGDNASRSLYPDAEDPQLGLD [PSD2], the protein stability index amounted to 5.52 ± 0.25 (treatment: DMSO) and 5.34 ± 0.15 (treatment: MLN4924 1 uM, 8 h).

As for MAVRLAGGLQKMVALLNKTNVKFL [CTNNB1], the protein stability index reads like this: (treatment: DMSO) 2.871 ± 0.006; (treatment: MLN4924 1 uM, 8 h) 2.63 ± 0.76.

Sequence KVMIHPDPERRPSAMALVKHSVLL [WEE1] had a protein stability index (treatment: DMSO) of 2.22 ± 0.14 and a protein stability index (treatment: MLN4924 1 uM, 8 h) of 2.34 ± 0.57.

Turning to DHYAAIKKAWDDLKKYLEPRCPRM [FBXO3], the protein stability index is 2.55 ± 0.22 (treatment: DMSO) and 2.69 ± 0.064 (treatment: MLN4924 1 uM, 8 h).

In the case of GPVPGTPGLPGSTGNPKSEEPEVP [SPNS1], the protein stability index turned out to be 5.55 ± 0.2 (treatment: DMSO) and 5.3 ± 0.34 (treatment: MLN4924 1 uM, 8 h).

As to YPPFWDEDQHKLYQQIKAGAYDFP [CAMK2B], the protein stability index amounted to 2.85 ± 0.35 (treatment: DMSO) and 3.11 ± 0.056 (treatment: MLN4924 1 uM, 8 h).

In the case of ITTLRVPVLRPMDLMVEATPRRVF [PPP2R2B], the protein stability index was found to be 2.52 ± 0.17 (treatment: DMSO) and 2.71 ± 0.27 (treatment: MLN4924 1 uM, 8 h).

Take PLSDDHDEKYGVPSLEELGFDTDG [CRY1]: the protein stability index by setting is: (treatment: DMSO) 5.58 ± 0.18; (treatment: MLN4924 1 uM, 8 h) 5.62 ± 0.18.
